Test results from PMC12467718.

Molecular target: mouse laminin (mouse)
Assay: ELISA; ELISA-type: mouse laminin coated on a black polystyrene plate, 50 µg/mL biotinylated-Gal-8, 37 °C 1 h, Streptavidin-Alexa 488, fluorescence (RFU)

How did the relative fluorescence units (RFU) turn out when “biotinylated human Galectin-8 (natural protein)” was run?
Its relative fluorescence units (RFU) is 4000 RFU.
